Results as given in patent publication US20210401786A1, “COMPOSITION FOR TREATING BURN WOUNDS” (priority 2020, published 2021).

Test system: human non-healing burn wounds
Assay: Wound healing in patients with non-healing burn wounds
Format: in vivo
Settings: for Wound healing time (X +/− S): patients, completely healed cases
Description: In this application, medical records of 430 patients, including 368 male and 60 female, aged from 1 to 70 years old, with a clinical diagnosis of at least one non-healing burn wound were collected. The burn injury includes 150 cases of hydrothermal burns, 167 cases of flame burns, 84 cases of electric burns, and 29 cases of chemical burns. […] The non-healing wounds of 430 patients were treated with the composition of Example 3 of the present invention (49 cases), surgery (197 cases), and conventional treatment (rhEGF therapy) (184 cases). There were no statistically significant differences observed among the groups in terms of gender, age, and wound area (p>0.05) (The comparison results of the differences in terms of various factors are shown in Tables 5, 6 and 7).
Among the 49 patients in the present invention, the wound was completely healed in 31 cases (63.27%), effectively healed in 15 cases (30.61%), improved in 2 cases (4.08%), and not healed in 1 case (2.04%). Among the 197 patients in the surgery group, the wound was completely healed in 152 cases (77.15%), effectively healed in 39 cases (19.80%), improved in 6 cases (3.05%), and not healed in 0 case (0%). Among the 184 patients in the conventional treatment group, the wound was completely healed in 96 cases (52.17%), effectively healed in 56 cases (30.43%), improved in 24 cases (13.05%), and not healed in 8 cases (4.35%). The effect of the present invention on wound healing is analyzed by the total effective rate after receiving different treatments. The total effective rate=(the number of completely healed cases+the number of effectively healed cases)/total number of cases.
The wound healing time of the present invention group, surgery group and conventional dressing group is 19.87±9.10 days, 22.71±11.77 days and 36.71±10.60 days, respectively. […] There is no significant difference in wound healing time between the present invention group and the surgery group (P>0.05).

[1] = patients with non-healing burn wounds
[2] = patients with non-healing burn wounds, listed as conventional treatment

B1: Conventional treatment: conventional treatment (rhEGF therapy) of patients' non-healing burn wounds (protein, UniProt P01133 23-1207, looked up)
Pro-epidermal growth factor: PQHWSCPEGTLAGNGNSTCVGPAPFLIFSHGNSIFRIDTEGTNYEQLVVDAGVSVIMDFHYNEKRIYWVDLERQLLQRVFLNGSRQERVCNIEKNVSGMAINWINEEVIWSNQQEGIITVTDMKGNNSHILLSALKYPANVAVDPVERFIFWSSEVAGSLYRADLDGVGVKALLETSEKITAVSLDVLDKRLFWIQYNREGSNSLICSCDYDGGSVHISKHPTQHNLFAMSLFGDRIFYSTWKMKTIWIANKHTGKDMVRINLHSSFVPLGELKVVHPLAQPKAEDDTWEPEQKLCKLRKGNCSSTVCGQDLQSHLCMCAEGYALSRDRKYCEDVNECAFWNHGCTLGCKNTPGSYYCTCPVGFVLLPDGKRCHQLVSCPRNVSECSHDCVLTSEGPLCFCPEGSVLERDGKTCSGCSSPDNGGCSQLCVPLSPVSWECDCFPGYDLQLDEKSCAASGPQPFLLFANSQDIRHMHFDGTDYGTLLSQQMGMVYALDHDPVENKIYFAHTALKWIERANMDGSQRERLIEEGVDVPEGLAVDWIGRRFYWTDRGKSLIGRSDLNGKRSKIITKENISQPRGIAVHPMAKRLFWTDTGINPRIESSSLQGLGRLVIASSDLIWPSGITIDFLTDKLYWCDAKQSVIEMANLDGSKRRRLTQNDVGHPFAVAVFEDYVWFSDWAMPSVMRVNKRTGKDRVRLQGSMLKPSSLVVVHPLAKPGADPCLYQNGGCEHICKKRLGTAWCSCREGFMKASDGKTCLALDGHQLLAGGEVDLKNQVTPLDILSKTRVSEDNITESQHMLVAEIMVSDQDDCAPVGCSMYARCISEGEDATCQCLKGFAGDGKLCSDIDECEMGVPVCPPASSKCINTEGGYVCRCSEGYQGDGIHCLDIDECQLGEHSCGENASCTNTEGGYTCMCAGRLSEPGLICPDSTPPPHLREDDHHYSVRNSDSECPLSHDGYCLHDGVCMYIEALDKYACNCVVGYIGERCQYRDLKWWELRHAGHGQQQKVIVVAVCVVVLVMLLLLSLWGAHYYRTQKLLSKNPKNPYEESSRDVRSRRPADTEDGMSSCPQPWFVVIKEHQDLKNGGQPVAGEDGQAADGSMQPTSWRQEPQLCGMGTEQGCWIPVSSDKGSCPQVMERSFHMPSYGTQTLEGGVEKPHSLLSANPLWQQRALDPPHQMELTQ
modifications: Pro-epidermal growth factor
notes: conventional treatment (rhEGF therapy) of patients' non-healing burn wounds
B1 was tested, and the “Total effective rate (%)” value ((completely healed + effectively healed cases)/total number of cases) was 82.61% ^, the “Completely healed case (%)” value [1] was “(52.17%)” and the “Completely healed case, number” value [1] was 96 cases. For the same molecule, the “Effectively healed case (%)” value [1] was “(30.43%)”, the “Effectively healed case, number” value [1] was 56 cases and the “Improved case (%)” value [1] was “(13.05%)”. For the same molecule, the “Improved case, number” value [1] was 24 cases, the “Not healed case (%)” value [1] was “(4.35%)” and the “Not healed case, number” value [1] was 8 cases. The “Completely healed case (%)” value [2] was 52.17%, the “Effectively healed case (%)” value [2] was 30.43% and the “Improved case (%)” value [2] was 13.05%. For the same molecule, the “Not healed case (%)” value [2] was 4.35%, the “Wound healing time (X +/− S)” value was 36.71 ± 10.60^ days and the “Wound healing time (X +/− S)” value (listed as conventional dressing) was 36.71 ± 10.60 days.
